From US20100311184A1, “AZO HETEROCYCLIC DYES AND THEIR BIOLOGICAL CONJUGATES” (AAT BIOQUEST, INC., priority 2009, published 2010) come the findings set out here.

Where no end group is shown, it is not given here. Compound 12 = dye made from 2-amino-6-nitrobenzothiazole and 3-(1'-oxo-3'-carboxypropylamino)-N,N-dimethylaniline

This test has as its target HIV-1 protease (Human immunodeficiency virus type 1 group M subtype B, UniProt P04585). Kind of test: Fluorogenic HIV protease assay with FRET peptides (FIG. 3). The class given is biochemical. The note with it: FRET peptide substrate, purified enzyme. The text has this:
Inhibition of HIV-1 protease represents an important avenue for AIDS therapy. Currently combination chemotherapy of reverse transcriptase inhibitors and protease inhibitors have shown to suppress the replication of HIV-1 and extend the life expectancy of HIV-1-infected individuals. The following FRET peptides of the instant disclosure are screened for developing a fluorogenic HIV protease assay. The enzyme assays are done with purified enzymes. Absorption spectra were taken with Hitachi U-3010. Endpoint fluorescence assays are run on either BMG NovoStar or Gemini SpectraMax (Molecular Devices). Enzyme kinetic assays are run on FlexStation (Molecular Devices). […] FRET Peptides #6 and #7 might be used for monitoring HIV protease activity in combination with a flow cytometer.
All the above FRET peptides are synthesized using the standard FMOC chemistry. Some of the TQ peptides were prepared using FMOC-Lys (Compound 12)-OH. For the post-labeling of the premade peptides, Dye NHS esters were used for labeling N-terminal amino or ε-amino group of lysine residue. Dye maleimides were used for labeling the SH group of cysteine residues.

Turning to “Arg-Glu(5-TAMRA)-Val-Ser-Phe-Asn-Phe-Pro-Gln-Ile-Thr-Lys(Compound 12)-Arg ({Arg-Glu(5-TAMRA)}-VSFNFPQITK(Compound 12)R) [FRET peptide #2]”, the “response to HIV-1 protease” value is on record as “excellent response”.
